Data reported in article PMC5428233, “Cross-beta nanostructures based on dinaphthylalanine Gd-conjugates loaded with doxorubicin” (Scientific Reports, 2017).

Experiments:
Type in all cases: physicochemical
[1] = Self-aggregation by intrinsic naphthyl fluorescence (intensity decrease, excimer peak); conditions: water, room temperature, excitation 280 nm
Method: Self-organization of the peptide conjugates at the atomic level was further characterized also in solution with fluorescence, UV-Vis, ^1HNMR, CD and FTIR spectroscopies. […] From ispection of Fig. 1b, the typical emission spectrum of the 2-naphthyl group with three maxima at 325, 340 and 355 nm, respectively, can be detected.
The determination of CAC (critical aggregate concentration) values was determined as previously described[6] by the titration of the fluorescent probe ANS (8-anilino-1-naphthalene sulfonic acid ammonium salt)[28], [29] with the peptide conjugates[30].

[2] = Aggregation by 1D 1H NMR at increasing concentration; conditions: H2O/D2O 90/10 v/v
From the text: This trend was also confirmed by ^1HNMR measurements (see Figure S4). We have recently analyzed the conformational properties of DOTA-L6-F4 in aqueous solution by mono- and multi-dimensional, homo- and hetero-nuclear NMR techniques. In the present work we have used a similar approach and thus implemented 1D [^1H] and 2D [^1H, ^1H] NMR spectroscopy to study two different compounds: DOTA-L6-F2 and 2Nal2 analogue in absence and in presence of the DOTA coordinated metal ion lanthanum (III), La. We used lanthanum (III) since it gives rise to a NMR “easy to handle” diamagnetic complex. Both DOTA-L6-F2 and 2Nal2 present low aggregation propensities. […] In detail by comparing spectra recorded at 0.3 mg/mL and 5.0 mg/mL chemical shift changes appear relevant in the spectral regions between 8.0 and 8.2 ppm, where signals from HN amide protons are present and between 3.0 and 3.5 ppm where several peaks overlap (Table S1). […]
NMR experiments were acquired in the temperature range of 298–303 K on either a Varian Unity Inova 600 MHz spectrometer provided with a cold probe or a 400 MHz Varian instrument provided with a 5-mm triple resonance probe and z-axis pulsed-field gradients. […] The DOTA-L6-F2 was analyzed in the concentration range 0.3 mg/mL (i.e., 0.3 mM)–5.0 mg/mL (i.e., 4.8 mM); for the La-DOTA-L6-F2 the examined concentration range was 0.3 mg/mL (i.e., 0.3 mM)–10.0 mg/mL (i.e., 8.5 mM). […]

[3] = Transmission electron microscopy of self-assembled conjugates; conditions: 5.0 mg/mL solution dried on grid, phosphotungstic acid stain
Method: Self-assembled peptide conjugate at 5.0 mg/mL, as free base or as metal complex, was initially characterized using TEM. […] The presence of a diffraction pattern both in SAXS and in WAXS is fingerprint of a hierarchical organization of the molecules in fibers from the atomic to the nanoscale.
TEM images were acquired by LaMest (Pozzuoli, Italy) with a FEI TECNAI G12 Spirit-Twin microscope (LaB6 source) endowed of a bottom mounted FEI Eagle-4k CCD camera (Eindhoven, The Netherlands), working at 120 kV.

[4] = Water proton relaxation measurements / NMRD profiles; conditions: aqueous solution, 298 K
From the text: The paramagnetic relaxivity (r1p) of Gd (III) complexes is given by:1 r1p∝1/T1MH=Kf(τR) where K is a constant related to the strength of the dipolar interaction between the protons and the electronic magnetic moment, and τR is the correlation time associated with the reorientation of the Gd-H magnetic vector. This means that slowly moving high molecular weight systems are endowed with higher relaxivity than rapidly reorienting low molecular weight ones. In the case of self assembling Gd-containing systems, the extent of aggregation may be evaluated through the measure of the water proton longitudinal relaxation rate of its aqueous solution. In Fig. 8 are reported the NMRD (Nuclear Magnetic Resonance Dispersion) profiles of Gd-2Nal2 acquired at 21.5 MHz (0.5 T) and 298 K as a function of the complex concentration. […] At concentrations higher than 10–15 mg/mL the relaxivity assumes an almost stable value which corresponds to the system in the completely aggregated form. By analyzing the profile of the relaxivity data as a function of the applied field strength (NMRD - Nuclear Magnetic Relaxation Dispersion) it is possible to obtain an accurate determination of the reorientational correlation time (τR)[16], that is strictly related to the molecular size of the investigated system. NMRD profiles were acquired below (black circles) and above (white ones) the CAC values determined by ANS titration and ^1HNMR. […] Data were analyzed using the Solomon-Bloembergen-Morgan model, [18], considering one water molecule in the inner coordination sphere (q = 1) and fixing the exchange lifetime (τM) to a reliable value ([…]) on the basis of those previously reported for mono-amido DOTA derivatives[19]–[22]. The quantitative analysis of the NMRD profile of the aggregated form was not satisfactory when the simple inner- outer-sphere model was used, so the Lipari-Szabo approach was used for the description of the rotational dynamics. This model allows one to take into account the presence ofa certain degree of internal rotation superimposed on the overall tumbling motion, [24]. These two types ofmotion, a relatively fast local rotation of the coordination cage about the linker to the peptide scaffold superimposed on the global reorientation of the system, are characterized by different correlation times: τR ^l and τR ^g, respectively. The degree of correlation between global and local rotations is given by the parameter S^2, which takes values between 0 (completely independent motions) and 1 (entirely correlated motions).
Measure of R1 (longitudinal water proton relaxation rates) of Gd-2Nal2 were carried out on a Stelar Spinmaster spectrometer (Pavia, Italy) operating at 0.5 T which corresponds to 21.5 MHz Proton Larmor Frequency. R1 (1/T1) values were measured at 298 K by mean of the standard inversion-recovery technique. For the measure of the proton 1/T1 NMRD (Nuclear Magnetic Resonance Dispersion) profiles, a fast field-cycling Stelar relaxometer, operating over a continuum of magnetic field strengths from 0.00024 to 0.47 T (corresponding to 0.01–20 MHz proton Larmor frequencies) was used. The temperature was set at 298 K. The relaxometer is computer controlled and the absolute uncertainty is 1/T1 ± 1%. Additional data points were obtained on a Stelar Spinmaster spectrometer coupled to an electromagnet tunable at different Larmor Frequencies between 21.5 and 70 MHz. Experimental temperature control was obtained with an air-flow heater (Stelar VTC-91) endowed of a copper constantan thermocouple (uncertainty 0.1 °C). A previously reported relaxometric method[39] was used for the determination of the concentrations of the solutions used for the relaxometric characterization. The conventional Solomon-Bloembergen-Morgan theory was used for fitting of experimental data.

DOTA-L6-(2Nal)2 [2Nal2]
concentration of appearance of the excimer peak (380-430 nm) / formation of stable aggregates [1]: above 2.0 mg/mL | concentration at which self-aggregation begins (decrease of fluorescence intensity) ([1]; 0.025-20.0 mg/mL range): 200 to 500 µg/mL | aggregation propensity by 1H NMR (in words) ([2]; 2Nal2 0.1-5.0 mg/mL, La-DOTA-L6-F2 0.3-10.0 mg/mL): cannot reveal significant aggregation | supramolecular aggregation / morphology in TEM images [3]: long fibrillary nanostructures

DOTA-L6-F2 [reference compound]
concentration at which aggregation appears in 1H NMR spectra (spectral changes / line broadening) ([2]; 298-303 K): higher than 1.2 mg/mL

Gd-DOTA-L6-F2 [reference compound]
r1p (longitudinal proton relaxivity) ([4]; complex at 1 mg/mL): 5.7 mM⁻¹ s⁻¹ | r1p (longitudinal proton relaxivity) ([4]; complex at 25 mg/mL (nanoaggregates), text: at 20 MHz): 6.0 mM⁻¹ s⁻¹
